Test results as given in article PMC12102759.

B1: TPTE2 peptide 94-109 (Phosphatidylinositol 3,4,5-trisphosphate 3-phosphatase TPTE2), 16-mer library wild type / TLN1 PTB (TLN1 Phosphotyrosine-binding (PTB) domain, residues 309-401) (parent)
chain 1: DLIFTDSKLYIPLEYR
chain 2: GVSFFLVKEKMKGKNKLVPRLLGITKECVMRVDEKTKEVIQEWNLTNIKRWAASPKSFTLDFGDYQDGYYSVQTTEGEQIAQLIAGYIDIILK
B2: SH3BP2 peptide 410-425 (SH3 domain-binding protein 2), 16-mer library wild type / TNKS ANK (TNKS 12 ANK repeats, residues 174-649) (parent)
chain 1: LPHLQRSPPDGQSFRS
chain 2: TGVPAVSGALRELLEACRNGDVSRVKRLVDAANVNAKDMAGRKSSPLHFAAGFGRKDVVEHLLQMGANVHARDDGGLIPLHNACSFGHAEVVSLLLCQGADPNARDNWNYTPLHEAAIKGKIDVCIVLLQHGADPNIRNTDGKSALDLADPSAKAVLTGEYKKDELLEAARSGNEEKLMALLTPLNVNCHASDGRKSTPLHLAAGYNRVRIVQLLLQHGADVHAKDKGGLVPLHNACSYGHYEVTELLLKHGACVNAMDLWQFTPLHEAASKNRVEVCSLLLSHGADPTLVNCHGKSAVDMAPTPELRERLTYEFKGHSLLQAAREADLAKVKKTLALEIINFKQPQSHETALHCAVASLHPKRKQVTELLLRKGANVNEKNKDFMTPLHVAAERAHNDVMEVLHKHGAKMNALDTLGQTALHRAALAGHLQTCRLLLSYGSDPSIISLQGFTAAQMGNEAVQQILSESTPIRTSD

Variants of: B1
Assay: proteomic peptide phage display deep mutational scan (ProP-PD DMS): M13 P8 16-mer library selected against immobilised GST-tagged bait for four days (rounds), NGS of the eluted pools per day and pseudo-replica
Conditions: with TLN1 PTB (TLN1 Phosphotyrosine-binding (PTB) domain, residues 309-401); bait immobilised on MaxiSorp plates (10 µg), library pre-cleared on GST, 2 h binding at 4 °C, five washes; one round per day, days 1-4; value from days 2 and 3; keep out of graded; scale: average fractional NGS count over selection days 2 and 3

Variant | screen value
chain 1 DLIFTESKLYIPLEYR [chain 1 D6E] | 0.000625
chain 1 DLIFTDSKLWIPLEYR [chain 1 Y10W] | 0.00022
chain 1 DLIFTDSKLYIPLKYR [chain 1 E14K] | 0.000193
chain 1 DLIFFDSKLYIPLEYR [chain 1 T5F] | 0.000105
chain 1 DLIFTDSKLYEPLEYR [chain 1 I11E] | 0.000129
chain 1 DLIFTDSKLYIPYEYR [chain 1 L13Y] | 0
chain 1 DNIFTDSKLYIPLEYR [chain 1 L2N] | 2.74e-05
chain 1 DLIFTDSKLYIPLERR [chain 1 Y15R] | 4.1e-05
chain 1 DLQFTDSKLYIPLEYR [chain 1 I3Q] | 0.00339
chain 1 DLIFTDSKLYIPLHYR [chain 1 E14H] | 9.43e-05
chain 1 DLDFTDSKLYIPLEYR [chain 1 I3D] | 0.0027
chain 1 DLIFTDSKLYIPLEDR [chain 1 Y15D] | 0.00294
chain 1 DWIFTDSKLYIPLEYR [chain 1 L2W] | 4.75e-05
chain 1 DFIFTDSKLYIPLEYR [chain 1 L2F] | 5.85e-05
chain 1 DLIFEDSKLYIPLEYR [chain 1 T5E] | 0.000584
chain 1 DLIFVDSKLYIPLEYR [chain 1 T5V] | 0.00155
chain 1 DLIFTDSKLYIPLAYR [chain 1 E14A] | 0.00053
chain 1 DLIFTDSKLYSPLEYR [chain 1 I11S] | 7.21e-05

Variant | screen value
chain 1 DLIFTDSKLYIPLEMR [chain 1 Y15M] | 0.00159
chain 1 DLITTDSKLYIPLEYR [chain 1 F4T] | 0
chain 1 DLIFTDSKLYIPKEYR [chain 1 L13K] | 0.00129
chain 1 WLIFTDSKLYIPLEYR [chain 1 D1W] | 4.41e-05
chain 1 DLIFTDSKLYIPLEAR [chain 1 Y15A] | 0.00819
chain 1 DLIFDDSKLYIPLEYR [chain 1 T5D] | 0
chain 1 DPIFTDSKLYIPLEYR [chain 1 L2P] | 0.000184
chain 1 PLIFTDSKLYIPLEYR [chain 1 D1P] | 0.00123
chain 1 DLIFTDSKLYIPLGYR [chain 1 E14G] | 0.00107
chain 1 DLIFTYSKLYIPLEYR [chain 1 D6Y] | 3.05e-05
chain 1 DLIFTDSKLYHPLEYR [chain 1 I11H] | 0.000432
chain 1 DLIFTDSKLYIPLENR [chain 1 Y15N] | 0.000999
chain 1 DLIFTDSKLYIPLEIR [chain 1 Y15I] | 0.00364
chain 1 DLIFWDSKLYIPLEYR [chain 1 T5W] | 4.49e-05
chain 1 DLIFTDSYLYIPLEYR [chain 1 K8Y] | 9.03e-05
chain 1 DLIFTSSKLYIPLEYR [chain 1 D6S] | 0.000216
chain 1 DLIFTDAKLYIPLEYR [chain 1 S7A] | 0
chain 1 DLIFTDSKLYDPLEYR [chain 1 I11D] | 2.74e-05

Variants of: B2
Assay: as above
Conditions: with TNKS ANK (TNKS 12 ANK repeats, residues 174-649); bait immobilised on MaxiSorp plates (10 µg), library pre-cleared on GST, 2 h binding at 4 °C, five washes; one round per day, days 1-4; value from days 2 and 3; keep out of graded; scale: average fractional NGS count over selection days 2 and 3

Variant | screen value
chain 1 LPHLQRSPPFGQSFRS [chain 1 D10F] | 0
chain 1 LPHLQRSPPHGQSFRS [chain 1 D10H] | 0
chain 1 LPHLQRSPPMGQSFRS [chain 1 D10M] | 3.11e-05
chain 1 LPHLQRSPPNGQSFRS [chain 1 D10N] | 0
chain 1 LPHLQRSPPRGQSFRS [chain 1 D10R] | 4.95e-05
